Reference: article PMC4269474 (Cell reports, 2014)

Target: the molecule itself
Assay: negative-stain EM single particle reconstruction

B1: Pyrococcus furiosus Cmr4 (natural protein)
chain: KAYLVGLYTLTPTHPGSGTELGVVDQPIQRERHTGFPVIWGQSLKGVLRSYLKLVEKVDEEKINKIFGPPTEKAHEQAGLISVGDAKILFFPVRSLKGVYAYVTSPLVLNRFKRDLELAGVKNFQTEIPELTDTAIASEEITVDNKVILEEFAILIQKDDKGILESVVKAIEQAFGNEMAEKIKGRIAIIPDDVFRDLVELSTEIVARIRINAETGTVETGGLWYEEYIPSDTLFYSLILVTPRAKDNDMALIKEVLGKINGKYLQIGGNETVGKGFVKVTLKEVTNNGGTHAK
- stoichiometry N: 4
